Source: paper doi:10.1101/2023.06.23.546240

Experiments:
Assay in all cases: SPR
Conditions in all cases: not given in the material (no Methods text)
[1] = target: T1, EfPiwi (Ephydatia fluviatilis) (UniProt D5MRY8)
T1 sequence: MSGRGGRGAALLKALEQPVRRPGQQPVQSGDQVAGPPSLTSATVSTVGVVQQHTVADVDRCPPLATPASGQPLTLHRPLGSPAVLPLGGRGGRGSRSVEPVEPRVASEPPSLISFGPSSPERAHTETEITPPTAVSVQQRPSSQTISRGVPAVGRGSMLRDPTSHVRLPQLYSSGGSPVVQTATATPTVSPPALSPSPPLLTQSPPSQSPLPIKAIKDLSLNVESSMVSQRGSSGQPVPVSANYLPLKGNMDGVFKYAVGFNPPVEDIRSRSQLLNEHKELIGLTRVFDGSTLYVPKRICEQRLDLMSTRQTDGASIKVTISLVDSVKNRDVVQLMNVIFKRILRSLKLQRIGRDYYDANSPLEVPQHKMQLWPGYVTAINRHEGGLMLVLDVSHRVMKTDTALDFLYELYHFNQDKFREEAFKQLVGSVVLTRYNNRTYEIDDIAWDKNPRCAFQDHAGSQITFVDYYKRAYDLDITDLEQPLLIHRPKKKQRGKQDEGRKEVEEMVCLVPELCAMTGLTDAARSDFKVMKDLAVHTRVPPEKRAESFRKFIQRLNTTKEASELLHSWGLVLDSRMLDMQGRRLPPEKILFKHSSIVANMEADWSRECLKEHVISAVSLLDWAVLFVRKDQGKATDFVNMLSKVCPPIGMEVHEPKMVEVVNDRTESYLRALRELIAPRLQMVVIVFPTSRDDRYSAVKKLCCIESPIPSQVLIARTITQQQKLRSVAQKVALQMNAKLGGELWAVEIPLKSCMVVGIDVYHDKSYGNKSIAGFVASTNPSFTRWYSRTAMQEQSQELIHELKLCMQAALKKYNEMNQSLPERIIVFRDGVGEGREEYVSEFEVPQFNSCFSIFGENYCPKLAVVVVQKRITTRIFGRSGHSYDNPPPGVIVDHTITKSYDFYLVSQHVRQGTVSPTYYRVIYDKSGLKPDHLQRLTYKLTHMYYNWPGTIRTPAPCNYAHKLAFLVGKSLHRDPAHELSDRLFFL

HILI (PIWIL2) (human) = HILI (PIWIL2) (human) (UniProt Q8TC59)
MILI (PIWIL2) (mouse) = MILI (PIWIL2) (mouse) (UniProt Q8CDG1)
Sequence of MILI (PIWIL2) (mouse) (Q8CDG1 whole entry): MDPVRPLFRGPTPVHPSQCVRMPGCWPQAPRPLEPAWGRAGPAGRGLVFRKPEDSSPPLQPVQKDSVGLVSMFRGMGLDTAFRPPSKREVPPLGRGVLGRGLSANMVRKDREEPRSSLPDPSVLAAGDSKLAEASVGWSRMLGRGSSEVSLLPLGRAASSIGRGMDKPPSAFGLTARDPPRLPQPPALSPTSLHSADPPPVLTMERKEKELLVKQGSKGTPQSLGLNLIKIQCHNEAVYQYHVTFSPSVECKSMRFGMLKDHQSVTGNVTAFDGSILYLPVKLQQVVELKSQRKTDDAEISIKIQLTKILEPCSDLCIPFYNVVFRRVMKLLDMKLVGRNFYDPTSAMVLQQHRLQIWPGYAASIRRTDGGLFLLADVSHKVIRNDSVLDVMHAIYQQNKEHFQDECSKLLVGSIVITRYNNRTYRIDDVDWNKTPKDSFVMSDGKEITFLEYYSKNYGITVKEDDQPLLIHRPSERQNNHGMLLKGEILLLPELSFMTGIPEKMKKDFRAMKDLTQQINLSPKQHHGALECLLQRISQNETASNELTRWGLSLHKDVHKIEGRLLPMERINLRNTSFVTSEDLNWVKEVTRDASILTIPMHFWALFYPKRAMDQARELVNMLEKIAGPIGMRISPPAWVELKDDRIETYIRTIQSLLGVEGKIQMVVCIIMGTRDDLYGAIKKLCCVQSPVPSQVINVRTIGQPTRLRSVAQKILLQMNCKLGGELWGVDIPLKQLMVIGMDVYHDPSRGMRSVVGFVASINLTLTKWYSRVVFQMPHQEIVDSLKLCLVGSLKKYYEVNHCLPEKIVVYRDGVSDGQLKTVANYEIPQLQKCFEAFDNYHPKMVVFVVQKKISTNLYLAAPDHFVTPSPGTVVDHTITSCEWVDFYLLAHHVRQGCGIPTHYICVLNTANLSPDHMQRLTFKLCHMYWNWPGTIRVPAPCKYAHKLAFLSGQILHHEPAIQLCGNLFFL

Sequence of HILI (PIWIL2) (human) (Q8TC59 whole entry): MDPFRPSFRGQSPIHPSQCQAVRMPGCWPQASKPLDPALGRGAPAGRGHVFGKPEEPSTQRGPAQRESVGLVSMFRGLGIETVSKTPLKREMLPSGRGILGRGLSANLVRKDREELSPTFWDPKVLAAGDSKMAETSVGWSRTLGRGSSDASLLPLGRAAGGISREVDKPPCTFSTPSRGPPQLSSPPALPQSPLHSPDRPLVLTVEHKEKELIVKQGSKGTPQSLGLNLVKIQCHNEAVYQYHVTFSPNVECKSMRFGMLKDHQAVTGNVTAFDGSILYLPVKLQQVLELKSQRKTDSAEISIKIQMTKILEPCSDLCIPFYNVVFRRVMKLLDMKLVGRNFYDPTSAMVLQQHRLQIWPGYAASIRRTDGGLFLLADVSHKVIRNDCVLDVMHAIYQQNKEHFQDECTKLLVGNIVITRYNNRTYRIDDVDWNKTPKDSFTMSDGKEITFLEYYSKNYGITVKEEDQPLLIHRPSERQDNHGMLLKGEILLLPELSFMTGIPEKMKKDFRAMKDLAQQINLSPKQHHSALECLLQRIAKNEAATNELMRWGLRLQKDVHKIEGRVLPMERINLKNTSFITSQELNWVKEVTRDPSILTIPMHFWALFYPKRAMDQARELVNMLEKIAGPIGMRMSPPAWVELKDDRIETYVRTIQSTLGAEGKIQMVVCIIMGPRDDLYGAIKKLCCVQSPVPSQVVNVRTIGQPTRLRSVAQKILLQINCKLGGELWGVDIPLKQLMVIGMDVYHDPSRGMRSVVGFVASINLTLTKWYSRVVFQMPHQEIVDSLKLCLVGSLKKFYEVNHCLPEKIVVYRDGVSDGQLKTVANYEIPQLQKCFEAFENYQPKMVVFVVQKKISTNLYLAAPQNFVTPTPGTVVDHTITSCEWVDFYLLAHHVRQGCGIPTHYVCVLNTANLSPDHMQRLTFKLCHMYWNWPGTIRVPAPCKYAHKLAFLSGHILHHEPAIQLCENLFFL

Substance: piRNA guide + target with g3-g4 dinucleotide mismatch
- binding signal (fold higher KD than MILI or HILI) [1]: 20

Substance: piRNA guide + seed-complementary (g2-g8) target
- binding signal (fold higher affinity than EfPiwi) (HILI (PIWIL2) (human)): 6
- binding signal (fold higher affinity than EfPiwi) (MILI (PIWIL2) (mouse)): 6
